Results: PMC5906670, “Structural basis of epilepsy-related ligand–receptor complex LGI1–ADAM22” (Nature Communications, 2018)

B1: LGI1 (wild type, pull-down with ADAM22/23 ECD-FLAG) [human] / ADAM23 ECD-FLAG [human] (parent complex)
chain 1: KKPAKPKCPAVCTCTKDNALCENARSIPRTVPPDVISLSFVRSGFTEISEGSFLFTPSLQLLLFTSNSFDVISDDAFIGLPHLEYLFIENNNIKSISRHTFRGLKSLIHLSLANNNLQTLPKDIFKGLDSLTNVDLRGNSFNCDCKLKWLVEWLGHTNATVEDIYCEGPPEYKKRKINSLSSKDFDCIITEFAKSQDLPYQSLSIDTFSYLNDEYVVIAQPFTGKCIFLEWDHVEKTFRNYDNITGTSTVVCKPIVIETQLYVIVAQLFGGSHIYKRDSFANKFIKIQDIEILKIRKPNDIETFKIENNWYFVVADSSKAGFTTIYKWNGNGFYSHQSLHAWYRDTDVEYLEIVRTPQTLRTPHLILSSSSQRPVIYQWNKATQLFTNQTDIPNMEDVYAVKHFSVKGDVYICLTRFIGDSKVMKWGGSSFQDIQRMPSRGSMVFQPLQINNYQYAILGSDYSFTQVYNWDAEKAKFVKFQELNVQAPRSFTHVSINKRNFLFASSFKGNTQIYKHVIVDLSA
chain 2: AVNPSRGIFEEMKYLELMIVNDHKTYKKHRSSHAHTNNFAKSVVNLVDSIYKEQLNTRVVLVAVETWTEKDQIDITTNPVQMLHEFSKYRQRIKQHADAVHLISRVTFHYKRSSLSYFGGVCSRTRGVGVNEYGLPMAVAQVLSQSLAQNLGIQWEPSSRKPKCDCTESWGGCIMEETGVSHSRKFSKCSILEYRDFLQRGGGACLFNRPTKLFEPTECGNGYVEAGEECDCGFHVECYGLCCKKCSLSNGAHCSDGPCCNNTSCLFQPRGYECRDAVNECDITEYCTGDSGQCPPNLHKQDGYACNQNQGRCYNGECKTRDNQCQYIWGTKAAGSDKFCYEKLNTEGTEKGNCGKDGDRWIQCSKHDVFCGFLLCTNLTRAPRIGQLQGEIIPTSFYHQGRVIDCSGAHVVLDDDTDVGYVEDGTPCGPSMMCLDRKCLQIQALNMSSCPLDSKGKVCSGHGVCSNEATCICDFTWAGTDCSIRDPVRNLHPPKDEGPKGPSA

Variants of: B1
Test: pull-down; anti-FLAG antibody agarose; proteins secreted from HEK293T cells; n = 4 independent experiments; read off a plot

percent of parent | Variant
~4 % of WT | chain 1 KKPAKPKCPAVCTCTKDNALCENARSIPRTVPPDVISLSFVRSGFTEISEGSFLFTPSLQLLLFTSNSFDVISDDAFIGLPHLEYLFIENNNIKSISRHTFRGLKSLIHLSLANNNLQTLPKDIFKGLDSLTNVDLRGNSFNCDCKLKWLVEWLGHTNATVEDIYCEGPPEYKKRKINSLSSKDFDCIITEFAKSQDLPYQSLSIDTFSYLNDEYVVIAQPFTGKCIFLEWDHVEKTFRNYDNITGTSTVVCKPIVIETQLYVIVAQLFGGSHIYKRDSFANKFIKIQDIEILKIRKPNDIETFKIENNWYFVVADSSKAGFTTIYKWNGNGFYSHQSLHAWYRDTDVEYLEIVRTPQTLRTPHLILSSSSQRPVIYQWNKATQLFTNQTDIPNMEDVAAVKHFSVKGDVYICLTRFIGDSKVMKWGGSSFQDIQRMPSRGSMVFQPLQINNYQYAILGSDYSFTQVYNWDAEKAKFVKFQELNVQAPRSFTHVSINKRNFLFASSFKGNTQIYKHVIVDLSA [chain 1 Y399A]
~6 % of WT | chain 1 KKPAKPKCPAVCTCTKDNALCENARSIPRTVPPDVISLSFVRSGFTEISEGSFLFTPSLQLLLFTSNSFDVISDDAFIGLPHLEYLFIENNNIKSISRHTFRGLKSLIHLSLANNNLQTLPKDIFKGLDSLTNVDLRGNSFNCDCKLKWLVEWLGHTNATVEDIYCEGPPEYKKRKINSLSSKDFDCIITEFAKSQDLPYQSLSIDTFSYLNDEYVVIAQPFTGKCIFLEWDHVEKTFRNYDNITGTSTVVCKPIVIETQLYVIVAQLFGGSHIYKRDSFANKFIKIQDIEILKIRKPNDIETFKIENNWYFVVADSSKAGFTTIYKWNGNGFYSHQSLHAWYADTDVEYLEIVRTPQTLRTPHLILSSSSQRPVIYQWNKATQLFTNQTDIPNMEDVYAVKHFSVKGDVYICLTRFIGDSKVMKWGGSSFQDIQRMPSRGSMVFQPLQINNYQYAILGSDYSFTQVYNWDAEKAKFVKFQELNVQAPRSFTHVSINKRNFLFASSFKGNTQIYKHVIVDLSA [chain 1 R344A]
~20 % of WT | chain 1 KKPAKPKCPAVCTCTKDNALCENARSIPRTVPPDVISLSFVRSGFTEISEGSFLFTPSLQLLLFTSNSFDVISDDAFIGLPHLEYLFIENNNIKSISRHTFRGLKSLIHLSLANNNLQTLPKDIFKGLDSLTNVDLRGNSFNCDCKLKWLVEWLGHTNATVEDIYCEGPPEYKKRKINSLSSKDFDCIITEFAKSQDLPYQSLSIDTFSYLNDEYVVIAQPFTGKCIFLEWDHVEKTFRNYDNITGTSTAVCKPIVIETQLYVIVAQLFGGSHIYKRDSFANKFIKIQDIEILKIRKPNDIETFKIENNWYFVVADSSKAGFTTIYKWNGNGFYSHQSLHAWYRDTDVEYLEIVRTPQTLRTPHLILSSSSQRPVIYQWNKATQLFTNQTDIPNMEDVYAVKHFSVKGDVYICLTRFIGDSKVMKWGGSSFQDIQRMPSRGSMVFQPLQINNYQYAILGSDYSFTQVYNWDAEKAKFVKFQELNVQAPRSFTHVSINKRNFLFASSFKGNTQIYKHVIVDLSA [chain 1 V250A]

Continued, variant first:

Variant | percent of parent
chain 1 KKPAKPKCPAVCTCTKDNALCENARSIPRTVPPDVISLSFVRSGFTEISEGSFLFTPSLQLLLFTSNSFDVISDDAFIGLPHLEYLFIENNNIKSISRHTFRGLKSLIHLSLANNNLQTLPKDIFKGLDSLTNVDLRGNSFNCDCKLKWLVEWLGHTNATVEDIYCEGPPEYKKRKINSLSSKDFDCIITEFAKSQDLPYQSLSIDTFSYLNDEYVVIAQPFTGKCIFLEWDHVEKTFRNYDNITGTSTVVCKPIVIETQLYVIVAQLFGGSHIYKRDSFANKFIKIQDIEILKIRKPNDIETFKIENNWYFVVADSSAAGFTTIYKWNGNGFYSHQSLHAWYRDTDVEYLEIVRTPQTLRTPHLILSSSSQRPVIYQWNKATQLFTNQTDIPNMEDVYAVKHFSVKGDVYICLTRFIGDSKVMKWGGSSFQDIQRMPSRGSMVFQPLQINNYQYAILGSDYSFTQVYNWDAEKAKFVKFQELNVQAPRSFTHVSINKRNFLFASSFKGNTQIYKHVIVDLSA [chain 1 K319A] | ~7 % of WT
chain 1 KKPAKPKCPAVCTCTKDNALCENARSIPRTVPPDVISLSFVRSGFTEISEGSFLFTPSLQLLLFTSNSFDVISDDAFIGLPHLEYLFIENNNIKSISRHTFRGLKSLIHLSLANNNLQTLPKDIFKGLDSLTNVDLRGNSFNCDCKLKWLVEWLGHTNATVEDIYCEGPPEYKKRKINSLSSKDFDCIITEFAKSQDLPYQSLSIDTFSYLNDEYVVIAQPFTGKCIFLEWDHVEKTFRNYDNITGTSTVVCKPIVIETQLYVIVAQLFGGSHIYKRDSFANKFIKIQDIEILKIRKPNDIETFKIENNWYFVVADSSKAGFTTIYKWNGNGFYSHQSLHAWYRDTDVEYLEIVRTPQTLRTPHLILSSSSQRPVIYQWNKATQLFTNQTDIPNMEDVYAVKHFSVKGDVYICLTRFIGDSKVMKWGGSSFQDIQRMPSRGSAVFQPLQINNYQYAILGSDYSFTQVYNWDAEKAKFVKFQELNVQAPRSFTHVSINKRNFLFASSFKGNTQIYKHVIVDLSA [chain 1 M443A] | ~10 % of WT
chain 1 KKPAKPKCPAVCTCTKDNALCENARSIPRTVPPDVISLSFVRSGFTEISEGSFLFTPSLQLLLFTSNSFDVISDDAFIGLPHLEYLFIENNNIKSISRHTFRGLKSLIHLSLANNNLQTLPKDIFKGLDSLTNVDLRGNSFNCDCKLKWLVEWLGHTNATVEDIYCEGPPEYKKRKINSLSSKDFDCIITEFAKSQDLPYQSLSIDTFSYLNDEYVVIAQPFTGKCIFLEWDHVEKTFRNYDNITGTSTVVCKPIVIETQLYVIVAQLFGGSHIYKRDSFANKFIKIQDIEILKIAAPNDIETFKIENNWYFVVADSSKAGFTTIYKWNGNGFYSHQSLHAWYRDTDVEYLEIVRTPQTLRTPHLILSSSSQRPVIYQWNKATQLFTNQTDIPNMEDVYAVKHFSVKGDVYICLTRFIGDSKVMKWGGSSFQDIQRMPSRGSMVFQPLQINNYQYAILGSDYSFTQVYNWDAEKAKFVKFQELNVQAPRSFTHVSINKRNFLFASSFKGNTQIYKHVIVDLSA [chain 1 R296A, chain 1 K297A] | ~9 % of WT
chain 1 KKPAKPKCPAVCTCTKDNALCENARSIPRTVPPDVISLSFVRSGFTEISEGSFLFTPSLQLLLFTSNSFDVISDDAFIGLPHLEYLFIENNNIKSISRHTFRGLKSLIHLSLANNNLQTLPKDIFKGLDSLTNVDLRGNSFNCDCKLKWLVEWLGHTNATVEDIYCEGPPEYKKRKINSLSSKDFDCIITEFAKSQDLPYQSLSIDTFSYLNDEYVVIAQPATGKCIFLEWDHVEKTFRNYDNITGTSTVVCKPIVIETQLYVIVAQLFGGSHIYKRDSFANKFIKIQDIEILKIRKPNDIETFKIENNWYFVVADSSKAGFTTIYKWNGNGFYSHQSLHAWYRDTDVEYLEIVRTPQTLRTPHLILSSSSQRPVIYQWNKATQLFTNQTDIPNMEDVYAVKHFSVKGDVYICLTRFIGDSKVMKWGGSSFQDIQRMPSRGSMVFQPLQINNYQYAILGSDYSFTQVYNWDAEKAKFVKFQELNVQAPRSFTHVSINKRNFLFASSFKGNTQIYKHVIVDLSA [chain 1 F222A] | ~16 % of WT
